# Reference: the RNAGym collection of RNA variant scans (doi:10.1073/pnas.2313332121)
# Variants at the floor of the assay were thinned out.
# B1: TPR 5TU (parent)
# chain: GGAUCUUCUCGAUCUAACAAAAAAGACAAAUCUGCCACAAAGCUUGAGAGCAUCUUCGGAUGCAGAGGCGGCAGCCUUCGGUGGCGCGAUAGCGCCAACGUUCUCAACUAUGACACGCAAAACGCGUGCUCCGUUGAAUGGAGUUUAUCAUG
# Variants of: B1
# Experiment: polymerase ribozyme fitness, log enrichment relative to wild type (log ratio); higher = more active; in vitro selection for triplet polymerase activity
# Procedure, shortened: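 Input and output libraries were sequenced on Illumina after a single in vitro selection round, run in triplicate on PCR-built, transcribed mutant libraries of each subunit of a heterodimeric triplet polymerase ribozyme. Selection annealed libraries to a biotinylated primer, the partner subunit and triplets, incubated them frozen at −7 °C, then gel-excised extended constructs for streptavidin-bead capture and RT-PCR. Genotypes with ≥10 input reads and ≥1 read per output were kept. Fitness is the logarithm, taken in base 2, of genotype enrichment divided by wild-type enrichment, using inverse-variance-weighted replicate averages.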
row,Variant,polymerase ribozyme fitness (log ratio)
1,A28U C87G C118G,≤ -4.2
2,U134C A142C,-0.0581
3,C27U G68C A89G C93A A110G G136C,≤ -4.2
4,C54U A121U,0.0158
5,U15G C85U,-0.0947
6,U9G A52G C72G C96U C105A A115G U127C G133U,≤ -4.2
7,A24U G50A C108G C125A G141C,≤ -4.2
8,A41C U134G,-2.46
9,C32A G88C G141C,≤ -4.2
10,C57A G59U U77A C99G,≤ -4.2
11,U7A C35A C87A C93A,≤ -4.2
12,U33A C95U,-4.12
13,C93U G133C,-2.76
14,C14G U31A G68A G86A A91G C108A C118G,≤ -4.2
15,G81C C125A G140C,-3.98
16,G68A G86A C87G,≤ -4.2
17,C57G A121U U135C,-2.26
18,A12U C14U A21U A49G C75G C116U A121C U146G U151G,≤ -4.2
19,C54U C99U,-0.322
20,C93U C99A,-3.72
21,A17G C51U U55G C79U G83U C95A C118G U145C,≤ -4.2

row,Variant,polymerase ribozyme fitness (log ratio)
1,U78G A89U C93G A106G C118G U145C A150U U151G,≤ -4.2
2,C8U A29G A52G U56A U127G,≤ -4.2
3,A16C C87U G128U,≤ -4.2
4,A17C A20C U53G G84A,-2.28
5,A29U G68A,≤ -4.2
6,G124U A142C,-1.75
7,U78G U90G C131A,≤ -4.2
8,A73U C123U,-0.392
9,C14A C75U,-1.84
10,A16C G84U A120G,-2.78
11,A24C A37C C38U G59A C95A A107C C116U,≤ -4.2
12,C69A A91U,≤ -4.2
13,C69A A91G,-3.81
14,C54U U82G C95A A119G,-2.04
15,G117A C123A,0.34
16,G117A A142U,-4.13
17,A37C U53A U78A C85A,≤ -4.2
18,A22G U33C C35U A66C,≤ -4.2
19,U61A A64C G71A G86A A91C C93U C118G,≤ -4.2
20,A91U C99G,≤ -4.2
21,G11U A40C G70C C103G,≤ -4.2

row,Variant,polymerase ribozyme fitness (log ratio)
1,C85G C123G U139A,≤ -4.2
2,U4A,-0.014
3,U61G U82C A89U A120U U135A,-2.52
4,U9C A47C A60G G84C C93A C105G A113U U127C,≤ -4.2
5,C14G C32U G48A C103U U127C,≤ -4.2
6,A16U U31A A64U C85U A91G C131A,≤ -4.2
7,A47U U55A,-0.542
8,U15G A22U U53A A121C A147C,0.0126
9,C27U A37C G59U U61A C63U A64C G92U,≤ -4.2
10,A47G G50A C85U C99A G124C U127G,≤ -4.2
11,C5U A22U C27G C36G G83U C103G C116U G136U,≤ -4.2
12,U55A U82G,-0.931
13,A39C A64C C93U,≤ -4.2
14,C35A G94C,-2.74
15,A12G U53A G68A A107U,≤ -4.2
16,A29U G46A U61A U78G C87G A89C G124U U148G,≤ -4.2
17,C57U G59C C95G C108U U148A,≤ -4.2
18,C79U A97G,-3.02
19,C36G U145A,-3.88
20,U44A U55A C63G C85U C87G G92U,≤ -4.2
21,G48A C57A U127A A142G G143A,≤ -4.2

row,Variant,polymerase ribozyme fitness (log ratio)
1,U6G A30C C43G A52C C54U U77A C85G A119G U148G,≤ -4.2
2,C57A C87G,-3.18
3,G74A C85U,-3.54
4,C43U C125G U151G,≤ -4.2
5,G34U C75G G81U C87U A120U,-3.98
6,U31A C76U C93G,-2.71
7,C5G C93U,-2.31
8,A30G A60G C93A C105G C132A A142U,≤ -4.2
9,U15G A39U C72U A91U A147U A150C,≤ -4.2
10,G70C C87G C96G A107G U146G,≤ -4.2
11,A150C G152A,-3
12,C8U A12G A52G A98U,-2.99
13,A3G A16G A24C A49G G80C,≤ -4.2
14,A21U A26C G141A,-3.34
15,U7G C63G C76G C93G A97U C99G A106U,≤ -4.2
16,A52C G84U C96U U144A,≤ -4.2
17,G42C G46A G68C C95A A106U C108G,≤ -4.2
18,U9A C10U C75A C87A A110G A119C,≤ -4.2
19,G86U C125U,-2.02
20,C132U,-0.687
